Laboratory results from patent US20060058231A1 (Xencor, published 2006).
Numbering of substitutions follows the chain as printed.

T1: BMPRII receptor-Fc fusion (UniProt Q13873 27-151, limits assumed)
T1 construct: BMP receptor-Fc fusion used at 5 ug/mL
T1 sequence (looked up): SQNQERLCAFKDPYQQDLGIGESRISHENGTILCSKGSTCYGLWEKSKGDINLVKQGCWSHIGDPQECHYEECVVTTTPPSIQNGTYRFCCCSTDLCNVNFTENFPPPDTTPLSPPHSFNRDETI

T2: BMPRIb receptor-Fc fusion (UniProt O00238 14-126)
T2 construct: BMP receptor-Fc fusion used at 5 ug/mL; also called ALK-6
T2 sequence (looked up): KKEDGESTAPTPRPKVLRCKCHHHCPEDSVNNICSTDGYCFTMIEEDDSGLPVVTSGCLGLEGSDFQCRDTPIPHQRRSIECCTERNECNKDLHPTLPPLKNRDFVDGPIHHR

B1: BMP-7 variant M23N (ligand)
chain: STGGKQRSQNRSKTPKNQEALRNASVAENSSSDQRQACKKHELYVSFRDLGWQDWIIAPEGYAAYYCEGECAFPLNSYMNATNHAIVQTLVHFINPETVPKPCCAPTQLNAISVLYFDDSSNVILKKYRNMVVRACGCH
notes: In conditioned media; numbering on mature BMP-7
B2: BMP-7 variant V26E (ligand)
chain: B1 chain with N23M, V26E
notes: as for B1
B3: BMP-7 variant R129D (ligand)
chain: B1 chain with N23M, R129D
notes: as for B1
B4: BMP-7 variant N76D (ligand)
chain: B1 chain with N23M, N76D
notes: as for B1
B5: BMP-7 variant Q53R (ligand)
chain: B1 chain with N23M, Q53R
notes: as for B1
B6: BMP-7 variant N76S (ligand)
chain: B1 chain with N23M, N76S
notes: as for B1
B7: BMP-7 variant V26G (ligand)
chain: B1 chain with N23M, V26G
notes: as for B1
B8: BMP-7 variant R48H (ligand)
chain: B1 chain with N23M, R48H
notes: as for B1
B9: BMP-7 variant R48Q (ligand)
chain: B1 chain with N23M, R48Q
notes: as for B1
B10: BMP-7 variant N76Y (ligand)
chain: B1 chain with N23M, N76Y
notes: as for B1
B11: BMP-7 variant R48N (ligand)
chain: B1 chain with N23M, R48N
notes: as for B1
B12: BMP-7 variant R129N (ligand)
chain: B1 chain with N23M, R129N
notes: as for B1
B13: BMP-7 variant Q53K (ligand)
chain: B1 chain with N23M, Q53K
notes: as for B1
B14: BMP-7 variant Q53G (ligand)
chain: B1 chain with N23M, Q53G
notes: as for B1
B15: BMP-7 variant W55N (ligand)
chain: B1 chain with N23M, W55N
notes: as for B1
B16: BMP-7 variant W52A (ligand)
chain: B1 chain with N23M, W52A
notes: as for B1
B17: BMP-7 variant V123G (ligand)
chain: B1 chain with N23M, V123G
notes: as for B1
B18: BMP-7 variant N76T (ligand)
chain: B1 chain with N23M, N76T
notes: as for B1
B19: BMP-7 variant Q53D (ligand)
chain: B1 chain with N23M, Q53D
notes: as for B1
B20: BMP-7 variant Q53E (ligand)
chain: B1 chain with N23M, Q53E
notes: as for B1
B21: BMP-7 variant S77P (ligand)
chain: B1 chain with N23M, S77P
notes: as for B1
B22: BMP-7 variant N76A (ligand)
chain: B1 chain with N23M, N76A
notes: as for B1
B23: BMP-7 variant R129S (ligand)
chain: B1 chain with N23M, R129S
notes: as for B1
B24: BMP-7 variant M23S (ligand)
chain: B1 chain with N23S
notes: as for B1
B25: BMP-7 variant V26N (ligand)
chain: B1 chain with N23M, V26N
notes: as for B1
B26: BMP-7 variant R134K (ligand)
chain: B1 chain with N23M, R134K
notes: as for B1
B27: BMP-7 variant S77T (ligand)
chain: B1 chain with N23M, S77T
notes: as for B1
B28: BMP-7 variant S77E (ligand)
chain: B1 chain with N23M, S77E
notes: as for B1
B29: BMP-7 variant R129K (ligand)
chain: B1 chain with N23M, R129K
notes: as for B1
B30: BMP-7 variant Q53S (ligand)
chain: B1 chain with N23M, Q53S
notes: as for B1

Molecular target: T3, ActRIIa receptor-Fc fusion (UniProt P27037 20-134, limits assumed)
T3 construct: BMP receptor-Fc fusion used at 5 ug/mL
Assay: ELISA-like plate assay, captured BMP-7 from conditioned media, receptor-Fc detection

T3 sequence (P27037 20-134 limits assumed): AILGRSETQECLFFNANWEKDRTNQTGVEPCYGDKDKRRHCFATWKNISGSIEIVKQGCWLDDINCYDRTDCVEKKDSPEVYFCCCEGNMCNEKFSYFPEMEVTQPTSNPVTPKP

ActRIIa binding (relative to wild type = 1.0)	Binder
0.94 relative to wild type	B1
1.02 relative to wild type	B2
1.13 relative to wild type	B3
1.13 relative to wild type	B4
0.81 relative to wild type	B5
0.99 relative to wild type	B6
1.07 relative to wild type	B7
1.02 relative to wild type	B8
0.8 relative to wild type	B9
0.92 relative to wild type	B10
0.93 relative to wild type	B11
1.1 relative to wild type	B12
0.73 relative to wild type	B13
0.99 relative to wild type	B14
0.41 relative to wild type	B15
1.69 relative to wild type	B16
0.53 relative to wild type	B17
1.11 relative to wild type	B18
0.89 relative to wild type	B19
0.98 relative to wild type	B20
1 relative to wild type	B21
0.96 relative to wild type	B22
0.62 relative to wild type	B23
2.2 relative to wild type	B24
1 relative to wild type	B25
1.18 relative to wild type	B26
1.15 relative to wild type	B27
1.17 relative to wild type	B28
1.12 relative to wild type	B29
1.04 relative to wild type	B30

Molecular target: T1, BMPRII receptor-Fc fusion
Assay: as above

BMPRII binding (relative to wild type = 1.0)	Binder
0.9 relative to wild type	B1
0.73 relative to wild type	B2
1.86 relative to wild type	B3
0.87 relative to wild type	B4
0.96 relative to wild type	B5
0.98 relative to wild type	B6
1 relative to wild type	B7
0.58 relative to wild type	B8
0.15 relative to wild type	B9
0.6 relative to wild type	B10
0.13 relative to wild type	B11
1.4 relative to wild type	B12
0.14 relative to wild type	B13
1.37 relative to wild type	B14
0.82 relative to wild type	B15
1.25 relative to wild type	B16
0.22 relative to wild type	B17
0.97 relative to wild type	B18
1.01 relative to wild type	B19
0.72 relative to wild type	B20
0.91 relative to wild type	B21
0.95 relative to wild type	B22
0.26 relative to wild type	B23
2.41 relative to wild type	B24
0.97 relative to wild type	B25
0.91 relative to wild type	B26
0.97 relative to wild type	B27
0.98 relative to wild type	B28
0.78 relative to wild type	B29
1.26 relative to wild type	B30

Molecular target: T4, BMPRIa receptor-Fc fusion (UniProt P36894 24-152, limits assumed)
T4 construct: also called ALK-3
Assay: as above

T4 sequence (P36894 24-152 limits assumed): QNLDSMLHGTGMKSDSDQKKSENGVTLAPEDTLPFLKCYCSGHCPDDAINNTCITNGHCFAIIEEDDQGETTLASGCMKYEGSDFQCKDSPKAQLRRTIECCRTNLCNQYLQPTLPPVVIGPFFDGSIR

BMPRIa binding (relative to wild type = 1.0)	Binder
0.98 relative to wild type	B1
1.02 relative to wild type	B2
0.93 relative to wild type	B3
0.84 relative to wild type	B4
1.26 relative to wild type	B5
0.76 relative to wild type	B6
1.08 relative to wild type	B7
3.15 relative to wild type	B8
1.06 relative to wild type	B9
0.46 relative to wild type	B10
1.87 relative to wild type	B11
0.89 relative to wild type	B12
0.7 relative to wild type	B13
3.7 relative to wild type	B14
0.35 relative to wild type	B15
0.92 relative to wild type	B16
0.67 relative to wild type	B17
0.94 relative to wild type	B18
2.2 relative to wild type	B19
2.3 relative to wild type	B20
0.58 relative to wild type	B21
0.79 relative to wild type	B22
0.32 relative to wild type	B23
0.88 relative to wild type	B24
1.14 relative to wild type	B25
1.05 relative to wild type	B26
0.77 relative to wild type	B27
0.81 relative to wild type	B28
0.69 relative to wild type	B29
0.66 relative to wild type	B30

Molecular target: T2, BMPRIb receptor-Fc fusion
Assay: as above

BMPRIb binding (relative to wild type = 1.0)	Binder
1.36 relative to wild type	B1
1.38 relative to wild type	B2
1.16 relative to wild type	B3
0.8 relative to wild type	B4
1.41 relative to wild type	B5
0.85 relative to wild type	B6
1.66 relative to wild type	B7
3.58 relative to wild type	B8
0.85 relative to wild type	B9
0.46 relative to wild type	B10
0.43 relative to wild type	B11
1.03 relative to wild type	B12
2.03 relative to wild type	B13
3.95 relative to wild type	B14
0 relative to wild type	B15
0.33 relative to wild type	B16
0.17 relative to wild type	B17
0.98 relative to wild type	B18
3.74 relative to wild type	B19
2.78 relative to wild type	B20
0.79 relative to wild type	B21
0.81 relative to wild type	B22
0.37 relative to wild type	B23
1.09 relative to wild type	B24
1.43 relative to wild type	B25
1.11 relative to wild type	B26
0.79 relative to wild type	B27
0.94 relative to wild type	B28
0.77 relative to wild type	B29
0.68 relative to wild type	B30
